Results: article doi:10.1101/2025.03.17.643633 (bioRxiv, 2025)

Molecular target: T1, TIE1 ectodomain, aa 21-760 (human, UniProt P35590-1 21-760)
T1 sequence: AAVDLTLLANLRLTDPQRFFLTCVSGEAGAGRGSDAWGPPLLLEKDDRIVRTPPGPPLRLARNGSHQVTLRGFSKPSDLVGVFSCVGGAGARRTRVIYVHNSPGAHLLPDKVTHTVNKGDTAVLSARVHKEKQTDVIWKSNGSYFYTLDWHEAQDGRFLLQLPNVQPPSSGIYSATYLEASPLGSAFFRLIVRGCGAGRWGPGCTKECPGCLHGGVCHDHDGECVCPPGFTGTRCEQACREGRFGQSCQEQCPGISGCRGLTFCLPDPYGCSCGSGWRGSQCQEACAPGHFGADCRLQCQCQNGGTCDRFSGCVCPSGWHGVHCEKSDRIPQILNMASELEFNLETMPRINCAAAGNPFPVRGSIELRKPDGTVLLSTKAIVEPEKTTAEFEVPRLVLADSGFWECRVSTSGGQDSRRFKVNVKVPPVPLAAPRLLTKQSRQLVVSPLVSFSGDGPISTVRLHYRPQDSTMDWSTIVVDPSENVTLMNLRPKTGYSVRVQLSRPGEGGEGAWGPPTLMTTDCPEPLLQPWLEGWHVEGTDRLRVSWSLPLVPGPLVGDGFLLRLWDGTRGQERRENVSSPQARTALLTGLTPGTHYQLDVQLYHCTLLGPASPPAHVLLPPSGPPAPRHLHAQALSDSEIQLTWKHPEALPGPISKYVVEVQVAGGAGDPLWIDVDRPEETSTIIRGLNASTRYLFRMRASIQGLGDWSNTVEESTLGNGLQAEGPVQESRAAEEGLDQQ
Assay: SPR

B1: Human SVEP1-Strep II recombinant protein, CCP15 to CCP24, aa 2261-2890 (70 kDa version) (domain or fragment)
chain: PLDCGKPPPIQNGFMKGENFEVGSKVQFFCNEGYELVGDSSWTCQKSGKWNKKSNPKCMPAKCPEPPLLENQLVLKELTTEVGVVTFSCKEGHVLQGPSVLKCLPSQQWNDSFPVCKIVLCTPPPLISFGVPIPSSALHFGSTVKYSCVGGFFLRGNSTTLCQPDGTWSSPLPECVPVECPQPEEIPNGIIDVQGLAYLSTALYTCKPGFELVGNTTTLCGENGHWLGGKPTCKAIECLKPKEILNGKFSYTDLHYGQTVTYSCNRGFRLEGPSALTCLETGDWDVDAPSCNAIHCDSPQPIENGFVEGADYSYGAIIIYSCFPGFQVAGHAMQTCEESGWSSSIPTCMPIDCGLPPHIDFGDCTKLKDDQGYFEQEDDMMEVPYVTPHPPYHLGAVAKTWENTKESPATHSSNFLYGTMVSYTCNPGYELLGNPVLICQEDGTWNGSAPSCISIECDLPTAPENGFLRFTETSMGSAVQYSCKPGHILAGSDLRLCLENRKWSGASPRCEAISCKKPNPVMNGSIKGSNYTYLSTLYYECDPGYVLNGTERRTCQDDKNWDEDEPICIPVDCSSPPVSANGQVRGDEYTFQKEIEYTCNEGFLLEGARSRVCLANGSWSGATPDCVPVR
With B1 the Kd was 62.5 nM.
